Assay: yeast display, Sf9 membrane polyspecificity reagent, FACS + sequencing; frameworks hold sequencing errors
Method in brief: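 Nanobodies from a synthetic yeast display library (Saccharomyces cerevisiae BJ5465), induced 36–48 hours with galactose, were stained 1 hour at 4 °C with 10% biotinylated, detergent-solubilized Sf9 membrane reagent, enriched on streptavidin microbeads, then FACS-sorted. Anti-HA (expression) and streptavidin (reagent binding) fluorescence set low and high (top ~1%) gates. Polyreactivity labels come from the gate of origin. Genes were colony-PCR amplified, MiSeq 2 × 250 sequenced and filtered by CDR length.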

Sequence | polyreactivity (PSR sort gate)
QVQLVESGGGLVQARGSLRLSCAATGSTFDKYAMGRYRQAPGKERELVAAISSSGTRTYYADSVKGRFTISRDNAKITVYLQMNSLKPEDTAVYYCDTGGSNKYYYWGQGTQVTVSS | high polyreactivity
QVQLVESGGGLVQARGSLRLSSAATGLIILAYAMGWYRQAPGKERELVAAISTSGSTYYADSVKGRFTISRDNAKNTVYLQMNSLKPEDTAVYYCAAYYRWSVTYYDWGQGTQGTVSS | high polyreactivity
QVQLVESGGGLVQARGSLRLTCAASGRNFYLNAMGWYRQAPGKERELVAAITWSGGRTYYADSVKGRFTISRDNAKNTVYLQMYSLKPEDTAFYYCAAVPRPGPNTVLTPYVYWGQGTQVTVSS | high polyreactivity
QVQLVESGGGLVQARGSLRVSCAASGSTFGRYAMGWYRQAPGKDRELVAAITGSGGSTYYADSVKGRFTISRDNAKNTVYLHMNSLKPEDTAVYYCAAPVDYRRYEYEYWGQGTQVTVSS | low polyreactivity
QVQLVESGGGLVQAVGSHRLSCAASGFIFTSYAMGCYRQAPGKERELVAAITRSGGRTYYADSVKGRFTISRDNAKNTVYLQMNSLKPEDTAVYYCAAVTFYQSPARGYWGQGTQVTVSS | high polyreactivity
QVQLVESGGGLVQAVGSLRLSCAASASIFRNNAMGWYRQAPGKERELVASISSSGDNTNYADSVKGRFTISRDNAKNTVYLQMNSLKPEDTAVYYCAAANKGPDQADYHYDQWGQGTQVTVSS | low polyreactivity
QVQLVESGGGLVQAVGSLRLSCAASGGIFTLYVMGWYRQAPGKERELVAAISRTGGSTYYADSVKGRFTISRDNAKNTVYLQMNSLKPEDTAVYYCAALYRGGTRYGGYDYWGQGTQVTVSS | low polyreactivity
QVQLVESGGGLVQAVGSLRLSCAASGLIFERYAMGSYIQAPGKEREFVAAISKRGGSTYYADSVKGRFTISRDNAKNTVYLQMNSLKPEDTAVYDCAVQPNYYGMGYCGQGTQVTVSS | high polyreactivity
QVQLVESGGGLVQAVGSLRLSCAASGRTFDFYAMGWYREAPGKEREFVAAISSRGGSTYYADTVKGRFTISRDNAKNTVYLQMNSLKPEDTAVYYCAKDLGYRGRYNYWGQGTQVTVSS | low polyreactivity
QVQLVESGGGLVQAVGSLRLSCAASGSIFPVYAMGWYRQAPGKERELVADITYTTGSTYYADSVKRRFTISRDNAKNTFYLQMNSLKPEDTAVYYCAKDFGFQSDSWGQGTQVTVSS | low polyreactivity
QVQLVESGGGLVQAVGSLRLSCAASGSTFAYYAMGWYRQAPGKEREFVAAISTRGGSTYYADSVKGRFTISRDNAKNTVYLQLISLKQEDTAFYYCAAGYFIYSWRIRFDHWGQGTQVTVSS | high polyreactivity
QVQLVESGGGLVQAVGSLRLSCADSGRLLSYYDMGWYRQAPGKVRELVARLGGTYYADSVKGRFTISRYIAKNTVYLQMNSLKPEDTAVYYCAAEYGYDFLRSYHEYGYWGQGTQVTVSS | low polyreactivity
QVQLVESGGGLVQAVGSLRLSCAPSGSTFPYYAMGWYRQAPGKERELVASIRKRGGGTYYADSVKGRFTISRDNAKNTVYLQMNSLKPEDTAVYYCAVRVYQFRYTGYDYWGQGTQVTVSS | high polyreactivity
QVQLVESGGGLVQAVGSLSLSCAASGIIFTWYDMGWYRPAPGKERELVAAISYIGGGSTYYADSVKGRFTISRDNAKNTVYLQMNSLKPEDTAVYYCATDFYYAKYGYWGQGTQVTVSS | low polyreactivity
QVQLVESGGGLVQEGGSLCLSCAASGINFYYYTMGWYRQATGKERELVDAISGDDTHYADSVKGRFTISGDNAKKTVYLLMNSLKADHTAVYYCAAGYIYWDTVQSVYEYGYCGQGTQVTVSS | low polyreactivity
QVQLVESGGGLVQEGGSLLLSCAASGRTFNQYAMGWYRQAPGKERELVAGITISGGSTYYADSVKGRFTISRENAKNTVYLQMNSLIPEDTAVYYCIAVFDYYRQSKWTMDYWGQGTQVTVSS | low polyreactivity
QVQLVESGGGLVQEGGSLPLSCAASGSIIWVYAMGWYRQPPGKERELFAAITSGVSTYYADSVKGRFTISRDNAKITVYFQFNRLKPEDSAVYDCAVVGGFRWIRMEYWGQGTQVSVSS | low polyreactivity
QVQLVESGGGLVQEGGSLRISCAASGRIFDSNAMVWYRQAPGKERELVAAISNGGTTNYADSVKGRFTISRDNAKNTVYLQMNSLKPADTAVYYCAARGRVVWYNGGSYRFYYWGQGTQVTVSS | high polyreactivity
QVQLVESGGGLVQEGGSLRISCAASGSIFQSNAMGRYRQAPGKERERVAAISSSGVRTYYADSVKGRFTISRDNAKNTVYLQMNSLKREDTAVYYCATGWYYAGGPTYEYYYWGQGTQVTVSS | low polyreactivity
QVQLVESGGGLVQEGGSLRLICAASGGIFIYNAMGWYRQEPGKEREFVAAINISGGNTYYADSVKGRFTISRDNAKNTVYLQMNSLKPEDTAVYYCAARYASSWWIRYYYWGQGTQVSVSS | high polyreactivity
QVQLVESGGGLVQEGGSLRLICAASGLIFPRYSMGWYRQAPGKERELVAAITRGGSTYYADSVKGRFTISRDNAMNTVYLQMNSLKQEDTAVSYCNAELPVHWSWYVYWGQGTQVTVSS | low polyreactivity
QVQLVESGGGLVQEGGSLRLICAASGLTFFPYAMGWYRQAPGKDRELVAAITTSDGTTYYADSVKGRFTISRDNAKNTVYLQMNSLKPEDTAVYYCAAVYSPRSVWWYDYWGQGTQVTVSS | low polyreactivity
QVQLVESGGGLVQEGGSLRLICAASGRIFAGYAMGWYSQAPGKERELVAAISQDGGSTYYADSVKGRFTISRDNAKNTVYLQMNSLKPEDTAVYYCAAEDPDSWLPWDLFDYWGQGTQVTVSS | low polyreactivity
QVQLVESGGGLVQEGGSLRLICAASGSTFKAYAMGWYRQAPGKERELVAAITNSDGDTYYADSVKGRFTISRDNAKNTVYLQMNSLKPEDRAVYYCNADDALRQTPDYNYWGQGTQVTVSS | low polyreactivity
QVQLVESGGGLVQEGGSLRLSCAASGFIFGYYAMGWYRQAPGKERELVAAISFSDGITYYADSVKGRFTISRDNAKNTVYLQMNSLKPEDTAVYYCATEILDYYYGSEYDYWGQGTQVTVSS | high polyreactivity
QVQLVESGGGLVQEGGSLRLSCAASGFIFHVNAMGWYRQAPGKERELVARITTSGGNTFYADSVKGRFTISRDNAKNTVYLQMNSLKPEDTAVYYCAIRYRYSVGWPVKNSAFGYWGQGTQVTVSS | low polyreactivity
QVQLVESGGGLVQEGGSLRLSCAASGFIFSFYVMGWYRQAPGKERELVAAISTSGASTYYADSVKGRFTISRDNAKNTVYLQMNSLKQEDTAVYYCNVVYRYGGYIYWGQGTQVTVSS | high polyreactivity
QVQLVESGGGLVQEGGSLRLSCAASGFTFYWYAMGWYRQAPGKERELVAAITRSGSSTYYADSVKGRFTISRDNAKNTVYLQMNSLKPEDTEVYYCAALPYKPYYDAYDYWGQGTQVTVSS | high polyreactivity
QVQLVESGGGLVQEGGSLRLSCAASGIIFRVYAMGWYRQAPGKERELVATITYSGGITYYADSVKGRFTISRVNAKNTVYLQMNSLKQEDTAGYYPIGVGGDYDYWGQGTQVSVSS | low polyreactivity
QVQLVESGGGLVQEGGSLRLSCAASGITFPDYAMGWYRQAPGKERELVAAISRGVNTYYADSVKGRFTISRDNAKNTVYLQMNSLKPEDTAVYYCNRRGSSGYDYWGLGTQVTVSS | low polyreactivity

— the nanobody polyreactivity screen of Harvey et al. (2022)
